The values below come from patent US20210163606A1 (ATYR PHARMA, published 2021).

The assay deals with T1, human NRP2 variant 2 (hNRP2), untagged, on Expi293 cells (Human, UniProt O60462 23-931).
T1 construct: Transcript NM_003872 / NP_003863.2; also called Expi293-hNRP2 clonal cells; Human NRP2a (version 2)
T1 sequence: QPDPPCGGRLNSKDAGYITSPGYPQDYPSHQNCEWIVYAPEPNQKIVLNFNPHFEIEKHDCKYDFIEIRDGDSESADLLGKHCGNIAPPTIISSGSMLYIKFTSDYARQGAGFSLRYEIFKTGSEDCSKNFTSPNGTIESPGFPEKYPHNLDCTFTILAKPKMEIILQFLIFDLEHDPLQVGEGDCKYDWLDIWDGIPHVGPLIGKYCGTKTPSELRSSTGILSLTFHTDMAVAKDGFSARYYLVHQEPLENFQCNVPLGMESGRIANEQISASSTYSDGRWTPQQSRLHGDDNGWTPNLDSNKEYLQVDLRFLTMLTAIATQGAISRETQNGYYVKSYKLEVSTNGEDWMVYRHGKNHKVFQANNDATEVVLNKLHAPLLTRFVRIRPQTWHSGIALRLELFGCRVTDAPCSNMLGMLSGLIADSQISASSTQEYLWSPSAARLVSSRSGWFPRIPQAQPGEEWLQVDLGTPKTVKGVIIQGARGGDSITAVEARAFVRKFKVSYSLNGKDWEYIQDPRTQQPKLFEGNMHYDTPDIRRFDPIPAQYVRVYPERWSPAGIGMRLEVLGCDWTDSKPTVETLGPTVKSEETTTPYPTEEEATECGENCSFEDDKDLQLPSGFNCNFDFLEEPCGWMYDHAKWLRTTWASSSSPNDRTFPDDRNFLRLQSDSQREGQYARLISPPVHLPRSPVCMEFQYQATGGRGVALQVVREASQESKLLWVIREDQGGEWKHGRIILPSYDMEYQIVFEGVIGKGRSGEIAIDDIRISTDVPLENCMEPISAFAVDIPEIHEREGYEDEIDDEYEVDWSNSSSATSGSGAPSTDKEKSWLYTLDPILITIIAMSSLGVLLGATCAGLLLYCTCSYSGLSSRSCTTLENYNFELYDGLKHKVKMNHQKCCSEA
Kind of assay: flow cytometry on Expi293-hNRP2 clonal cells. The method, then: Expi293-hNRP2 clonal cells were collected by centrifugation at 300 g for 5 minutes, and washed twice by DPBS (with calcium and magnesium, ThermoFisher Cat #14040133). Washed cells were added to a 96-well V-bottom plate (ThermoFisher Cat #1424572) at 100,000 cells/well in […] of DPBS added with Zombie Violet viability stain (Biolegend Cat #423114, diluted at 1:500). From this step on, cells were protected from light. Cells were kept at room temperature for 10 min and pelleted down at 300 g for 5 minutes at 4° C. Supernatants containing Zombie Violet were discarded, and without washing, 30 uL of antibodies diluted in the flow wash buffer (FWB, DPBS plus 2% FBS and 0.1% sodium azide to inhibit receptor internalization) were added to the cells. For anti-NRP2 antibody staining on Expi293-hNRP2 clonal cells, in-house human anti-NRP2 antibodies were tested at final concentrations of 0.006-100 nM at 4-fold dilutions. […] Binding was allowed to proceed on ice for 40-60 minutes. Cells were then pelleted at 300 g for 5 minutes at 4° C., supernatants removed, and cells washed twice by adding 150 μL of FWB and centrifuging the cells again in the same conditions. To detect a-NRP2 binding on the cell surface, Cy3-conjugated goat anti-human IgG Fc (Jackson ImmunoResearch Cat #109165098) was added to the cells at a final concentration of 3 μg/mL in 30 μL of FWB. After 30-40 minutes of incubation on ice, cells were pelleted at 300 g for 5 minutes at 4° C. and supernatants removed, and the cells were washed twice as described previously. Cells were then resuspended in FWB before acquisition on the Cytoflex. Gains were set based on staining controls. Cells were collected with typically more than 10,000 events. Cells were then analyzed on FlowJo analysis software by excluding dead cells and gating singlets. The statistical analysis was performed using GraphPad Prism. A four-parameter variable-slope curve was fitted to the data ([agonist] vs. response) using non-linear regression, and the EC₅₀ and r2 for each curve was determined.
The EC₅₀ of four anti-NRP2 antibodies directed against different domains of NRP2, were measured for binding to Expi293-hNRP2 clonal cells (see Table E1 and FIG. 3).
Background: In flow cytometry, cells or beads pass a laser one at a time.

B1: aNRP2-10v10 (antibody, V domains shown)
VH: EVQLVQSGAEVKKPGATVKISCKVSGFNIKDYYVHWVQQAPGKGLEWMGRIDVEDDETKYAPKFQGRVTITADTSTDTAYMELSSLRSEDTAVYYCATPIYGAREAWFAYWGQGTLVTVSS
VL: DIQMTQSPSSLSASVGDRVTITCTASSSVSSSYLHWYQQKPGKAPKLLIYRTSNLASGVPSRFSGSGSGTDFTLTISSLQPEDFATYYCHQYYRSPPTFGGGTKVEIK
As to B1, a half-maximal effect (EC50) was put at 0.09 nM.

By EC50 is commonly meant the concentration giving half of the maximal effect. Lower therefore signals higher potency in that assay.
